{"source": "patent US7262274", "target": "human RANK, full length (expressed in or on cells) (human) (UniProt Q9Y6Q6)", "sequence (Q9Y6Q6 30-616 limits assumed)": "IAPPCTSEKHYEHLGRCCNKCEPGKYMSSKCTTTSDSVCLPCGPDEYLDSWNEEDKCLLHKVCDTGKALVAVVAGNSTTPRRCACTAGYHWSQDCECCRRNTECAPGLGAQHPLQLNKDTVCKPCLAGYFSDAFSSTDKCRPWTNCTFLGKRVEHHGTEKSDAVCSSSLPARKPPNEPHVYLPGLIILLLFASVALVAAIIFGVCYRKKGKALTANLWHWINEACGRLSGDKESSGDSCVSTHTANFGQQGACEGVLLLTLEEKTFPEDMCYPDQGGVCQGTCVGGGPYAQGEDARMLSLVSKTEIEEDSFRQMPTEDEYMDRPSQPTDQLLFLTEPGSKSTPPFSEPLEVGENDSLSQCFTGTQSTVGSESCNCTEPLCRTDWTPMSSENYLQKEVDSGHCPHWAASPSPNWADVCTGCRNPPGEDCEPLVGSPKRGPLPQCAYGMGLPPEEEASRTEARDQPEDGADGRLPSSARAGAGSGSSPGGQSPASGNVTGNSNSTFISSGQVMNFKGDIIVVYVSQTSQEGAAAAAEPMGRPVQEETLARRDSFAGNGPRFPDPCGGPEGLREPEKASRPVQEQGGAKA", "test": "cell-based or functional assay", "data": [{"substance": "RANKL (species and construct not stated at the place of use) (ligand)", "values": [{"measurement": "allo-stimulatory capacity of CD1a+ DC in a mixed lymphocyte reaction (MLR)", "result": "> 10", "unit": "fold"}]}]}
